Assay results from patent US20190359687A1 (Bayer, published 2019).

T1: human glycophorin A on human red blood cells or red blood cell membranes (human, UniProt P02724 20-150)
T1 construct: whole, on cells; also called hRBC; human RBC membranes
T1 sequence (looked up): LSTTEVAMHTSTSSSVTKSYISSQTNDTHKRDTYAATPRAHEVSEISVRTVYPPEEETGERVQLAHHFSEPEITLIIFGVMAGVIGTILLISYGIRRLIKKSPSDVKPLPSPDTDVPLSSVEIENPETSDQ

T2: recombinant human glycophorin A ectodomain protein (human, UniProt P02724 20-91)
T2 construct: 72 amino acids of the extracellular region; also called Hu-rec GPA
T2 sequence: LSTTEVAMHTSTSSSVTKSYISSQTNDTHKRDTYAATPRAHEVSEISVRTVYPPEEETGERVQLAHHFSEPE

T3: native human glycophorin A protein (human, UniProt P02724 20-150)
T3 construct: mature; also called Hu-nat GPA
T3 sequence (looked up): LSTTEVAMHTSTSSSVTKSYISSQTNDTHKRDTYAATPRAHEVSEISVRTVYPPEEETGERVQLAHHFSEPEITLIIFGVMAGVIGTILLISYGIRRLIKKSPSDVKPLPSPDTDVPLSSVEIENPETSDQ


Key:
[1] = biological target: T1, human glycophorin A on human red blood …; assay: Fab on intact human RBC, unbound Fab by ELISA; 60 min after 200-fold dilution
[2] = biological target: T4, Cynomolgus monkey glycophorin A on Cynomolgus monkey red blood cells or red blood cell membranes (Cynomolgus monkey); assay: Fab on intact cyno RBC, unbound Fab by ELISA; 120 min after 200-fold dilution
T4 construct: whole, on cells; also called Cyno RBC; Cynomolgus monkey RBC membranes
Method: (§1) The binding of affinity matured Fab antibodies to intact Cynomolgus monkey RBC was measured. Cynomolgus monkey RBC were isolated from fresh anti-coagulated blood by centrifugation through a ficol gradient and washing in PBS buffer. RBC diluted to 1/10th of normal hematocrit were incubated with the Fab at a final concentration of 7 ug/ml for 1 hour at room temperature on a rotating shaker after which a sample was taken and the RBC were pelleted by centrifugation and the supernatant was collected. The remaining RBC suspension was diluted 200-fold in PBS buffer and incubated for a total of 2 hours at room temperature on a rotating shaker and samples were removed at 0, 5 min, 20 min, 1 h and 2 h and the RBC pelleted and the supernatant collected. […] The amount of Fab in the supernatants was then measured using an ELISA assay and the results used to calculate the percentage of the input Fab that was bound to the RBC.

[3] = biological target: T4, Cynomolgus monkey glycophorin A on …; assay: Fab 7 ug/ml on intact cyno RBC, unbound Fab by ELISA; pre-dilution
[4] = biological target: T4, Cynomolgus monkey glycophorin A on …; assay: Fab on intact cyno RBC, unbound Fab by ELISA; 60 min after 200-fold dilution
Method: as §1

[5] = biological target: T4, Cynomolgus monkey glycophorin A on …; assay: Fab on intact cyno RBC, unbound Fab by ELISA; 20 min after 200-fold dilution
Method: as §1

[6] = biological target: T1, human glycophorin A on human red blood …; assay: Fab 7 ug/ml on intact human RBC, unbound Fab by ELISA; pre-dilution
Method: The binding of affinity matured Fab antibodies to intact human RBC was also measured. Human RBC were isolated from fresh anti-coagulated normal human blood by centrifugation through a ficol gradient and washing in PBS buffer. RBC diluted to 1/10th of normal hematocrit were incubated with purified Fab antibodies at a final concentration of 7 ug/ml for 1 hour at room temperature on a rotating shaker after which a sample was taken and the RBC were pelleted by centrifugation and the supernatant was collected. The remaining RBC suspension was diluted 200-fold in PBS buffer and incubated for a total of 2 hours at room temperature on a rotating shaker and samples were removed at 0, 5 min, 20 min, 1 h and 2 h and the RBC pelleted and the supernatant collected. The amount of Fab in the supernatants was then measured using an ELISA assay and the results used to calculate the percentage of the input Fab that was bound to the RBC. […] The percentage that remains bound after 200-fold dilution of the RBC suspension is an indication of the overall strength of the binding to human RBC.

[7] = biological target: T4, Cynomolgus monkey glycophorin A on …; assay: Fab on intact cyno RBC, unbound Fab by ELISA; 5 min after 200-fold dilution
Method: as §1

[8] = biological target: T1, human glycophorin A on human red blood …; assay: SPR (Biacore), Fab on human RBC membranes; T½ = 0.69/kd; * not accurate
Method: (§2) Kinetic analysis of the antibody binding to human red blood cell membranes was also performed using surface plasmon resonance (SPR) using a Biacore instrument. In this assay membranes prepared from human red blood cells were attached to a L1 sensor matrix and antibodies were flowed over the RBC membranes.
(§3) The binding kinetics of the affinity matured Fab antibodies was also measured.

[9] = biological target: T4, Cynomolgus monkey glycophorin A on …; assay: Fab on intact cyno RBC, unbound Fab by ELISA; 0 min after 200-fold dilution
[10] = biological target: T1, human glycophorin A on human red blood …; assay: SPR (Biacore), Fab on human RBC membranes; * not accurate, instrument limit
Method: as §2, §3

[11] = biological target: T1, human glycophorin A on human red blood …; assay: ELISA, Fab on coated human RBC membranes
Method: These membranes are prepared by first isolating red blood cells from citrated whole blood. Citrated whole blood is layered on to Ficol and centrifuged at low speed for 20 minutes to pellet the red blood cells. The supernatant containing plasma and other blood cells is discarded and the red blood cell pellet is subsequently washed 3 times in 10 cell volumes of phosphate buffered saline (PBS). A 10 ml pellet of purified red blood cells is resuspended in 30 ml of cold low osmorality 20 mM phosphate buffer (pH7.4) and incubated for 30 mins to break open the RBC. After Centrifugation at 10,000 rpm for 30 min at 5° C. the hemoglobin containing supernatant is discarded. To the membrane pellet another 30 ml of 20 mM phosphate buffer is added and the sample centrifuged again at 10,000 rpm for 30 min at 5° C. to pellet the membrane fraction. This wash and centrifugation step is repeated another 4 times. The red blood cell membranes are then resuspended in 20 mL of PBS to achieve an equivalent of approximately 2.5E9 cells/mL and stored frozen at −20° C. Binding of antibodies to RBC ghost can be measured by ELISA in which the RBC ghost suspension (5×10⁶ in 100 ul PBS) was added to each well of flat bottom 96-well ELISA microtiter plates (2HB, Immunolon) and the plates incubated overnight at 4° C. The plates were blocked with Starting blocking buffer (Thermo Fisher) for 2 hours at room temperature (RT). Antibodies or other test molecules were added to each well and incubated for 1.5 hours at RT. After 4 washes 100 ul of an appropriate detection antibody was added to each well and incubated for 1 hour at RT. After 4 washes the detection antibody was measured using appropriate detection reagents.

[12] = biological target: T5, Cynomolgus monkey recombinant glycophorin A ectodomain (Cynomolgus monkey); assay: ELISA, Fab on coated recombinant cyno GPA ectodomain
T5 construct: extracellular domain

[13] = biological target: T1, human glycophorin A on human red blood …; assay: SPR (Biacore), Fab on human RBC membranes; T½ = 0.69/kd
Method: as §2, §3

[14] = biological target: T2, recombinant human glycophorin A …; assay: ELISA, Fab on coated recombinant human GPA ectodomain
[15] = biological target: T1, human glycophorin A on human red blood …; assay: SPR (Biacore), Fab over human RBC membranes, 1:1 fit; * slight deviation possible
Method: as §2

[16] = biological target: T3, native human glycophorin A protein; assay: ELISA, Fab on coated native human GPA
[17] = biological target: T4, Cynomolgus monkey glycophorin A on …; assay: ELISA, Fab on coated cyno RBC membranes

Row | Binder | percentage of input antibody bound [1] [%] | percentage of input antibody bound [2] [%] | percentage of input antibody bound [3] [%] | percentage of input antibody bound [4] [%] | percentage of input antibody bound [5] [%] | percentage of input antibody bound [6] [%] | percentage of input antibody bound [7] [%] | Estimated T½ [8] [days] | percentage of input antibody bound [9] [%] | Kd [10] [pM] | koff [10] [s⁻¹] | binding in ELISA relative to parental Fab [11] | binding in ELISA relative to parental Fab [12] | Estimated T½ [13] [days] | binding in ELISA relative to parental Fab [14] | Kd [15] [pM] | koff [15] [s⁻¹] | kon [15] [M⁻¹ s⁻¹] | binding in ELISA relative to parental Fab [16] | binding in ELISA relative to parental Fab [17]
1 | TPP-7790, affinity matured 6C12 Fab (Fab, V domains shown, Tested as Fab with a 6xHIS tag) VH: EVQLVQSGAEVKKPGASVKVSCKASGYTFTTYAIHWVRQAPGQGLEWMGYINPSSGYTRYNPKFKHRVTMTRDKSTSTAYMELRSLRSDDTAVYYCWTGTRDYWGQGTTVTVSS VL: DIQLTQSPSFLSASVGDRVTITCRASSSVRYIYWFQQKPGKAPKLLIYATSFLQSGVPSRFSGSGSGTEYTLTISSLQPEDFATYYCHQRNSFPYTFGQGTKLEIK | 87 | 85 | 94 | 87 | 90 | 91 | 90 | 596 | 87 | < 2.33 | < 2e-05 | – | – | – | – | – | – | – | – | –
2 | TPP-5906, humanized and germlined 6C12 Fab; VL: (S24R, A26S, S49A, P54Q, F95Y); VH: (I48M, D56G, D66G, L70M, T72R) (Fab, V domains shown, The text says that a 6xHIS tag is present on the Fabs in the peptide ELISA; it is not in the printed chains) VH: EVQLVQSGAEVKKPGASVKVSCKASGYTFTTYTIHWVRQAPGQGLEWMGYINPSSGYTRYNPKFKGRVTMTRDKSTSTAYMELRSLRSDDTAVYYCQTGTRDYWGQGTTVTVSS VL: DIQLTQSPSFLSASVGDRVTITCRASSSVSYIYWFQQKPGKAPKLLIYATSTLQSGVPSRFSGSGSGTEYTLTISSLQPEDFATYYCHQRNSFPYTFGQGTKLEIKR | 8 | – | – | – | – | 93 | – | – | – | – | – | 93.5 relative to parental Fab | 1.4 relative to parental Fab | 0.00139 | 7.2 relative to parental Fab | 900 | 0.0034 | 4e+06 | 12.9 relative to parental Fab | 2.5 relative to parental Fab
